These results are taken from patent US20210047418A1 (VESTLANDETS INNOVASJONSSELSKAP, published 2021).

For one experiment, the target named is T1, human integrin α11-EGFP (human, UniProt Q9UKX5 23-1188).
T1 construct: whole, on cells; Fusion of about 180 kDa by the legend; In the Western blot it stood as denatured protein from cell lysate; also called hu α11-EGFP; C2C12-hu α11-EGFP; not shown: EGFP tag
T1 sequence (looked up): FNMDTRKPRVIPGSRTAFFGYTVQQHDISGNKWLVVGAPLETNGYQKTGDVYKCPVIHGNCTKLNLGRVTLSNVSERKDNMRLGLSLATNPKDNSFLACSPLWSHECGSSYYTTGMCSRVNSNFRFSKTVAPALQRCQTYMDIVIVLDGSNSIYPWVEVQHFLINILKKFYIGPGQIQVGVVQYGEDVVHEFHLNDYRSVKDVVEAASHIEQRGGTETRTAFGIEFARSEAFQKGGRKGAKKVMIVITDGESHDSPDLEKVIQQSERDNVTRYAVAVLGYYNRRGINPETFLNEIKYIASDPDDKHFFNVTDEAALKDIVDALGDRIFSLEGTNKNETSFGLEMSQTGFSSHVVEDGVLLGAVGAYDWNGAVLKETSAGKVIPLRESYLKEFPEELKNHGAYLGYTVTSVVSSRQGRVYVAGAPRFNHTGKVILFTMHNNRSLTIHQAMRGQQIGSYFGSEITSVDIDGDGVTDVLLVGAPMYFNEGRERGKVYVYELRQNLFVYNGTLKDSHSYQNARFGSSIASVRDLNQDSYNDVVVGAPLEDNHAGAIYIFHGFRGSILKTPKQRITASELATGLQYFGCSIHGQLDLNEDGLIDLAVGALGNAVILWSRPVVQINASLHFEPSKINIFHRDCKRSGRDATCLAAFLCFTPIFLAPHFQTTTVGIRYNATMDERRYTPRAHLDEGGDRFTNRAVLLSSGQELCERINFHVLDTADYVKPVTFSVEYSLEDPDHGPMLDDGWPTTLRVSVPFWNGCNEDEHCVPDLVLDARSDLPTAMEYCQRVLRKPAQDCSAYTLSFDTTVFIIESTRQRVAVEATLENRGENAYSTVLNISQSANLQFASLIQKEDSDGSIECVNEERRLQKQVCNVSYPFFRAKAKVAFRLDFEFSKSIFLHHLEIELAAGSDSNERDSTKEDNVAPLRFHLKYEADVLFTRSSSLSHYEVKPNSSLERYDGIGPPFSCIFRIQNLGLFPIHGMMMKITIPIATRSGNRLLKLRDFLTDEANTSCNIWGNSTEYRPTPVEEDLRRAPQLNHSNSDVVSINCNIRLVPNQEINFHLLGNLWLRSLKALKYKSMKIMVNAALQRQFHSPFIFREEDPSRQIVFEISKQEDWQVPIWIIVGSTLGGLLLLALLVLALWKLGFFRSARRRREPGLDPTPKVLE
The experiment in a line: Western blot on C2C12-hu α11-EGFP lysate (FIG. 1D).

The target in experiment [1] is T2, human integrin α11 subunit (human, UniProt Q9UKX5 23-1188).
T2 construct: whole, on cells; In C2C12-α11 cells and their lysates the human α11 chain is present as α11β1 heterodimer (the legend says 'Immunoprecipitation of integrin α11β1'); the β1 partner in the mouse cells is not described; In the staining and blot experiments cells were methanol fixed, lysed or the tissue was formalin fixed and paraffin embedded; also called alpha-11 integrin subunit; integrin chain α11
T2 sequence (looked up): T1 sequence (looked up)
The experiment in a line: immunoprecipitation from C2C12-α11 cell lysate, Western blot detection with the polyclonal α11 antibody (FIG. 1C). As to the method: FIG. 1. Immunological characterization of 210F4B6A4 mAb [0019] A-B. C2C12 mouse myoblast cells expressing human integrin α11-EGFP or WT (wildtype) C2C12 cells were stained with 210F4B6A4 mAb for 1 hour at 4° C. Cells were then washed and stained with goat anti-mouse R-Phycoerythrin IgG. Samples were analysed by flow cytometry using Intellicyt iQue and fluorescence intensity was measured. [0020] C. Immunoprecipitation (IP) of integrin α11β1 with the 210F4B6A4 mAb and the polyclonal α11 antibody (α11 pAb)[5]. Protein bands of integrin chain α11 at the expected size after immunoprecipitation using α11 antibodies followed by Western blotting and detection using the polyclonal α11 antibody. [0021] D. Western-blotting (WB) using the α11 210F4B6A4 mAb on C2C12-hu α11-EGFP lysate, shown is the protein band of expected size of aα11-EGFP (180 kDa). [0022] E. C2C12 mouse myoblast cells expressing human integrin α11 were allowed to attach on collagen I-cocated coverslips for 2 hours, cell were then fixed with methanol and incubated with 210F4B6A4 mAb or control IgG. Bound antibody was detected using goat anti-mouse Alexa Fluor 594. Integrin α11 staining in cell focal adhesions is indicated by white arrowheads. […]
For orientation: Immunoblotting shows a protein as a band on a membrane.

B1: monoclonal mouse anti-human integrin alpha-11 antibody clone 210 F4B6A4 produced by the hybridoma deposited as DSM ACC3320 (antibody, V domains shown)
VH: EVQLQQSGAELVRPGASVKVSCTASGFNIKDDYIHWMRRRPAQGLEWIGWIDPENGDTEYASNFQGKATTTVDVSSNTAYLQLSRLTSEDTAIYYCSREYAYWGQGTLVTVSA
VL: DVVMTQTPLSLPVSLGDQASISCRSSQSLLYSNGNTYLQWYLQKPGQSPKLLIYRASNRFSGVPDRFSGSGSGTDFTLKISRVEAEDLGVYFCSQSTHVPWTFGGGTKLEIK
notes: Mouse monoclonal antibody from hybridoma (used partly as hybridoma supernatant); also called 210F4B6A4 mAb; F210F4B6A4
In the case of B1, the binding result (with human integrin α11-EGFP; in experiment [1]) was “binds” each time.
